Source: IntAct's records for PubMed 21399639

Biological target: T1, ikkb_human IKBKB (UniProt O14920)
T1 sequence: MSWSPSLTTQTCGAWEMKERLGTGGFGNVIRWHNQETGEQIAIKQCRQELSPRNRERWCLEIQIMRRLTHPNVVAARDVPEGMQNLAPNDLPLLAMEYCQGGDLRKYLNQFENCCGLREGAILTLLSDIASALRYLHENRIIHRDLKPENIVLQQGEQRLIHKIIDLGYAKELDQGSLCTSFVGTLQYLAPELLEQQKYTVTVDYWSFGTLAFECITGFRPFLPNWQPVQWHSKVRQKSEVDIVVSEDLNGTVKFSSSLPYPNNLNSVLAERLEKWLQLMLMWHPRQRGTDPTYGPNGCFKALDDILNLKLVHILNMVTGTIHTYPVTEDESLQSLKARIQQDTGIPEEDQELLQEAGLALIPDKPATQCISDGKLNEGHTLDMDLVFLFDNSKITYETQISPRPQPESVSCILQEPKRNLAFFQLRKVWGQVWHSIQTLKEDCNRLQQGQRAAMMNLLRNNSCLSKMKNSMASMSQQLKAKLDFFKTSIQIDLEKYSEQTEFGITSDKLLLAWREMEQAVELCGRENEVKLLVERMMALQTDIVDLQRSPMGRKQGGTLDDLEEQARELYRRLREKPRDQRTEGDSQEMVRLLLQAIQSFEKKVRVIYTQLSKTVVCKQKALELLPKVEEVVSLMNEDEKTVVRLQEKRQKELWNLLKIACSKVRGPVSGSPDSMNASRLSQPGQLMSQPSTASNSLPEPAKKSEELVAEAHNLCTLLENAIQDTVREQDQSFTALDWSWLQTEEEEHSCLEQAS

## Small ribosomal subunit protein uS3 (Homo sapiens) (from UniProt P23396) S209A
  effect of a mutation on the interaction: disrupting interaction
